Data taken from US20060009452A1, “Therapeutic targeting of PARC/CCL18 and its signaling in pulmonary fibrosis” (priority 2004, published 2006).
Entries after “also recorded” stand apart in the source; their conditions may differ.

Legend:
Format in all cases: cell-based, human
lung fibroblasts [1] = test: Collagen production, metabolic labeling with 14C-proline, PAGE and autoradiography
Experimental: Collagen Production Assays. Production of collagen was assessed using metabolic labeling with ^14C-proline and Western blotting with anti-collagen type I antibody. For metabolic labeling of collagen, fibroblasts were plated at 2×10^5 cells/well in 6-well plates (Costar, Cambridge, Mass.), in duplicates, incubated overnight in 3 ml/well of high serum medium, and then for 24 h in low-serum medium. After that, the culture medium was replaced with 1 ml/well of fresh low serum medium with or without added test substances and containing ^14C-proline at 1 μCi/ml (Amersham Pharmacia Biotech). After incubation for the desired periods of time, the cell culture supernatants were collected, rapidly frozen in liquid nitrogen and freeze-dried at −70° C. The pellets were dissolved in 100 μl of reducing Laemmli buffer per 1 ml of the cell culture supernatant, and the samples were electrophoretically separated in 7.5% acrylamide gels. Alternatively, samples were concentrated 10-fold by filter centrifugation on 30K Ultrafree-MC filters (Millipore, Bedford, Mass.). Fluorographic images were developed using EN[3H]ANCE autoradiography enhancer (NEN, Boston, Mass.). Gel images were acquired using Storm densitometer (Molecular Dynamics, Sunnyvale, Calif.), and the densities of the bands were analyzed with ImageQuant software (Molecular Dynamics). Dependence of collagen production by fibroblast cultures on the dose of PARC and duration of stimulation were evaluated using one-way ANOVA with post hoc testing.
The identity of collagen bands was confirmed by sensitivity to pepsin and collagenase (both from Sigma) digestion. For pepsin digestion, 2 μl of 1 Macetic acid were added to 40 μl of concentrated fibroblast culture supernatant, followed by 1 μl of pepsin stock, to achieve final concentration of pepsin as indicated in the text. After 15 min of digestion at room temperature, reaction was stopped with 4 μl of 1 M Tris base and 40 μl of reducing Laemmli buffer. For collagenase digestion, 1 μl of 4 U/ml bacterial collagenase and 1 μl of protease inhibitor cocktail (Sigma) were added to 40 μl of sample and digestion performed at room temperature for 30 min. The bacterial collagenase was highly purified and had minimal clostripain and neutral protease activity, as tested by the manufacturer, according to the product information sheet.
To test effects of rhPARC on collagen protein production by lung and dermal fibroblast cell lines, fibroblast cultures were incubated for 48 h with or without 30 ng/ml and 300 ng/ml rhPARC in the low-serum cell culture medium containing 14Cproline for metabolic labeling of collagen. Fibroblast culture supernatants contained two 14C-proline containing bands in gel electrophoresis under reducing conditions (FIGS. 13A and 13B). Digestion with chromatographically pure bacterial collagenase in the presence of protease inhibitors eliminated the bands completely (FIG. 13A). To confirm the identity of these bands, we conducted Western blotting experiments in reducing conditions of fibroblast culture supernatants using an anti-collagen type I antibody, that recognizes α1(I) collagen but not other collagen chains. Digestion with pepsin caused expected decrease in the apparent molecular weight of the immunoreactive collagen from ˜175 kD to ˜125 kD (FIG. 13C).

lung fibroblasts [2] = test: Western blotting of fibroblast culture supernatants for collagen type I / α1(I)
Experimental: Collagen Production Assays. Collagen was quantified as described elsewhere (Atamas S P et al.). Briefly, fibroblasts were cultured with β-aminopropionitrile (Sigma) to prevent collagen cross-linking, and Western blotting assays for collagen were performed using rabbit affinity purified anti-collagen type I antibody (Rockland, Gilbertsville, Pa.). Before electrophoresis, samples were reduced and denatured by boiling in Laemmli buffer containing β-mercaptoethanol. Human purified collagen type I (Southern Biotech, Birmingham, Ala.) was used as a positive control in these assays. The identity of collagen bands was confirmed by sensitivity to pepsin and collagenase (both from Sigma) digestion, as described (Atamas S P et al.). Under these conditions, pro-collagen appears as a single or double band around 175 kDa (Gaidarova S et al., Stefanovic B et al.). Images were collected using a Storm densitometer and band densities analyzed with ImageQuant software (Molecular Dynamics, Sunnyvale, Calif.).
Western blotting assays for collagen were performed using rabbit affinity purified anti-collagen type I antibody (Rockland, Gilbertsville, Pa.). Before electrophoresis, samples were reduced and denatured by boiling in Laemmli buffer containing β-mercaptoethanol. Human purified collagen type I (Southern Biotech, Birmingham, Ala.) was used as a positive control in these assays.
Collagen was quantified by Western blotting and the identity of collagen bands was confirmed by sensitivity to pepsin and collagenase digestion as described elsewhere in Atamas et al. (Am. J. Respir. Cell. Mol., 29:743-749 (2003)). In these assays, pro-collagen appears as a single or double band with a molecular weight of approximately 175 kDa (4,27,28).

[3] = system: lung and dermal fibroblast lines; test: CellTiter AQueous 96 fibroblast proliferation assay; conditions: for maximum increase in fibroblast proliferation over non-stimulated control: Days 7 and 8, rhPARC 1-3,000 ng/ml
Experimental: Cell Proliferation Assays. For CellTiter AQueous 96 Non-Radioactive Cell Proliferation Assay (Promega, Madison, Wis.), fibroblasts were plated in low-serum medium at 2×10^3 cells/well in 96-well flat-bottom tissue culture plates (Costar) in 0.2-ml cultures and stimulated with increasing concentrations of rhPARC in quadruplicates. Low-serum tissue culture medium alone was the negative control. The Cell-Titer proliferation assay was performed according to the manufacturer's instructions, after the fibroblasts were incubated with test substances for 3-8 d. Data were expressed as mean OD490±SD of quadruplicate cultures and analyzed using one-way ANOVA with post hoc testing.

ERK1/2 = test: Immunoblotting for phosphorylation of ERK1/2; conditions: lung fibroblasts LF1/LF2 activated with rhPARC
Sp1 [4] = test: EMSA of nuclear lysates with Sp1-specific probe; conditions: consensus and collagen α2(I) promoter-specific probes
Experimental: NushifTM kits for EMSA and supershift assays and reagents for preparation of nuclear extracts were purchased from Active Motif (Carlsbad, Calif.); the procedures were performed according to manufacturer's recommendations, including end-labeling of the specific probes with [γ-^32P]ATP. In addition to the [γ-^32P]ATP-labeled Sp1 consensus probe ([NT] ID NO:5), wild-type and mutant ([NT] ID NO:6) oligo competitors, and an Sp1-specific antibody from the kit, an oligonucleotide representing the Sp1-binding region in the α2(I) collagen promoter ([NT] ID NO:7) was used as a probe (after end-labeling with [γ-^32P]ATP) and as a cold competitor. […] Nuclear extracts were adjusted for total protein content to ensure equal loading. Gels were exposed to a Phosphorimager screen and scanned using a Storm Phosphorimager (Molecular Dynamics); band densities were analyzed with ImageQuant software.

Sp1 [5] = test: TranSignal protein/DNA arrays of nuclear lysates; conditions: LF1 and LF2
[6] = LF2 cells, 300 ng/ml rhPARC, 48 h

B1: rhPARC: Recombinant human pulmonary and activation-regulated chemokine (CC chemokine CCL18), purchased from R&D Systems and Cell Sciences (protein)
chain: AQVGTNKELCCLVYTSWQIPQKFIVDYSETSPQCPKPGVILLTKRGRQICADPNKKWVQKYISDLKLNA
Lung fibroblasts [1]; 48 h, 300 ng/ml rhPARC, responding lung and dermal lines
  average increase in the density of collagen bands: 3.4±0.9 fold
Lung fibroblasts [1]; 48 h, five out of seven tested lung and dermal fibroblast lines
  increase of fibroblast production of collagen over control: more than 3 fold
Lung fibroblasts [1]; LF1 cells, 300 ng/ml rhPARC, 48 h
  combined density of procollagen bands, fold higher than non-stimulated control: 3.4 fold
Lung fibroblasts [1]; LF2 cells, 30 ng/ml rhPARC, 48 h
  combined density of procollagen bands, fold higher than non-stimulated control: 2.7 fold
Lung fibroblasts [1]; [6]
  combined density of procollagen bands, fold higher than non-stimulated control: 4.4 fold
Lung fibroblasts [1]; up to 72 h, rhPARC up to 1,000 ng/ml
  response of collagen production in one lung and one dermal fibroblast line: non-responsive
Lung fibroblasts [2]
  concentration causing detectable stimulation of collagen production: below 300 ng/ml
Lung fibroblasts [2]; LF1 and LF4, 30 ng/ml and 300 ng/ml rhPARC
  collagen production, dose-response: significant increase in collagen production
Lung fibroblasts [2]; LF1 and LF4, 3, 6 and 12 h of activation
  increase in collagen production over control non-treated cells: ≤ 1.2±0.2 fold
Lung fibroblasts [2]; [6]
  combined density of procollagen bands, fold higher than non-stimulated control: 4.2 fold
Lung fibroblasts [2]; LF4, 300 ng/ml rhPARC, 24 h
  increase in densities of the collagen bands relative to the control culture: 4.4
Lung fibroblasts [2]; LF4, 300 ng/ml rhPARC, 48 h
  increase in densities of the collagen bands relative to the control culture: 3.2
Lung fibroblasts [2]; LF4, 300 ng/ml rhPARC, 72 h
  increase in collagen production, densitometry at shorter non-saturating exposure: 3.4 fold
Lung fibroblasts [2]; LF4, 300 ng/ml rhPARC, 72 h, bands saturated
  increase in densities of the collagen bands relative to the control culture: 1.3
Lung fibroblasts [2]; LF4 cells, 100 ng/ml rhPARC, 48 h
  combined density of procollagen bands, fold higher than non-stimulated control: 3.6 fold
[3]; dermal lines
  maximum increase in fibroblast proliferation over non-stimulated control: 45-50%
[3]; lung lines
  maximum increase in fibroblast proliferation over non-stimulated control: 20-25%
[3]; summary statement
  increase in fibroblast proliferation: 25-50%
ERK1/2
  phosphorylation of ERK1/2: increased; also recorded: activated
Sp1 [4]
  DNA binding by Sp1 (EMSA): three-fold increase; also recorded: activates transcription factor Sp1
Sp1 [5]
  DNA binding by Sp1 (protein/DNA arrays): consistently increased
